The text below walks through data of the supplement of paper PMC11316812.

± gives the standard deviation of the averaged measurements.

One data set deals with MCF7. The data set can be described thus: percentage of EdU-negative (G0-arrested) nuclei per well, 72 h; higher = more G0 arrest. The conditions noted are these: reference: sequence is the full UniProt precursor, the tested protein was the secreted form or ectodomain.
In the next data set the test system is hTERT-HMEC. Described as above. The conditions noted are these: reference: sequence is the full UniProt precursor, the tested protein was the secreted form or ectodomain.
[1] abbreviates: protein concentration 0.01425 µM.
[2] abbreviates: protein concentration 0.1425 µM.
Where [3] appears, read: protein concentration 0.0202725 µM.
The mark [4] stands for this setting: protein concentration 0.202725 µM.
Where [5] appears, read: protein concentration 0.0357143 µM.
[6] abbreviates: protein concentration 0.357143 µM.
The mark [7] stands for this setting: protein concentration 0.03125 µM.
[8] abbreviates: protein concentration 0.3125 µM.
Where [9] appears, read: protein concentration 0.01034 µM.
[10] abbreviates: protein concentration 0.1034 µM.
The mark [11] stands for this setting: protein concentration 0.0294275 µM.
Where [12] appears, read: protein concentration 0.294275 µM.
The mark [13] stands for this setting: protein concentration 0.0257143 µM.
Where [14] appears, read: protein concentration 0.257143 µM.
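Further: secreted proteins added to cultured cells, EdU pulse at the end, nuclei found by Hoechst imaging, EdU status from nuclear versus surrounding ring intensity ratio, PBS as neutral control.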

As to “MERCPSLGVTLYALVVVLGLRATPAGGQHYLHIRPAPSDNLPLVDLIEHPDPIFDPKEKDLNETLLRSLLGGHYDPGFMATSPPEDRPGGGGGAAGGAEDLAELDQLLRQRPSGAMPSEIKGLEFSEGLAQGKKQRLSKKLRRKLQMWLWSQTFCPVLYAWNDLGSRFWPRYVKVGSCFSKRSCSVPEGMVCKPSKSVHLTVLRWRCQRRGGQRCGWIPIQYPIISECKCSC”, the “percentage of EdU-negative” value with MCF7 (setting [1]) worked out at 23.9 ± 0.44%; with MCF7 (setting [2]) it was 25.4 ± 2.8%; in the data set on hTERT-HMEC (setting [1]), 4.77 ± 0.41%; in the data set with hTERT-HMEC (setting [2]) it was 5.81 ± 0.99%.
In the case of “MERDGCAGGGSRGGEGGRAPREGPAGNGRDRGRSHAAEAPGDPQAAASLLAPMDVGEEPLEKAARARTAKDPNTYKVLSLVLSVCVLTTILGCIFGLKPSCAKEVKSCKGRCFERTFGNCRCDAACVELGNCCLDYQETCIEPEHIWTCNKFRCGEKRLTRSLCACSDDCKDKGDCCINYSSVCQGEKSWVEEPCESINEPQCPAGFETPPTLLFSLDGFRAEYLHTWGGLLPVISKLKKCGTYTKNMRPVYPTKTFPNHYSIVTGLYPESHGIIDNKMYDPKMNASFSLKSKEKFNPEWYKGEPIWVTAKYQGLKSGTFFWPGSDVEINGIFPDIYKMYNGSVPFEERILAVLQWLQLPKDERPHFYTLYLEEPDSSGHSYGPVSSEVIKALQRVDGMVGMLMDGLKELNLHRCLNLILISDHGMEQGSCKKYIYLNKYLGDVKNIKVIYGPAARLRPSDVPDKYYSFNYEGIARNLSCREPNQHFKPYLKHFLPKRLHFAKSDRIEPLTFYLDPQWQLALNPSERKYCGSGFHGSDNVFSNMQALFVGYGPGFKHGIEADTFENIEVYNLMCDLLNLTPAPNNGTHGSLNHLLKNPVYTPKHPKEVHPLVQCPFTRNPRDNLGCSCNPSILPIEDFQTQFNLTVAEEKIIKHETLPYGRPRVLQKENTICLLSQHQFMSGYSQDILMPLWTSYTVDRNDSFSTEDFSNCLYQDFRIPLSPVHKCSFYKNNTKVSYGFLSPPQLNKNSSGIYSEALLTTNIVPMYQSFQVIWRYFHDTLLRKYAEERNGVNVVSGPVFDFDYDGRCDSLENLRQKRRVIRNQEILIPTHFFIVLTSCKDTSQTPLHCENLDTLAFILPHRTDNSESCVHGKHDSSWVEELLMLHRARITDVEHITGLSFYQQRKEPVSDILKLKTHLPTFSQED”, the “percentage of EdU-negative” value was 25.1 ± 0.47% with MCF7 (setting [3]), 24.77 ± 0.21% in the data set on MCF7 (setting [4]), 4.82 ± 0.41% in the data set with hTERT-HMEC (setting [3]) and 5.77 ± 0.8% in the data set with hTERT-HMEC (setting [4]).
Consider “MERLVIRMPFSHLSTYSLVWVMAAVVLCTAQVQVVTQDEREQLYTPASLKCSLQNAQEALIVTWQKKKAVSPENMVTFSENHGVVIQPAYKDKINITQLGLQNSTITFWNITLEDEGCYMCLFNTFGFGKISGTACLTVYVQPIVSLHYKFSEDHLNITCSATARPAPMVFWKVPRSGIENSTVTLSHPNGTTSVTSILHIKDPKNQVGKEVICQVLHLGTVTDFKQTVNKGYWFSVPLLLSIVSLVILLVLISILLYWKRHRNQDRGELSQGVQKMT”, for which the “percentage of EdU-negative” value was 23.6 ± 3.9% in the data set with MCF7 (setting [5]), 23.5 ± 1% with MCF7 (setting [6]), 5.34 ± 1.2% with hTERT-HMEC (setting [5]) and 5.8 ± 1% in the data set on hTERT-HMEC (setting [6]).
For “MERMLPLLALGLLAAGFCPAVLCHPNSPLDEENLTQENQDRGTHVDLGLASANVDFAFSLYKQLVLKAPDKNVIFSPLSISTALAFLSLGAHNTTLTEILKGLKFNLTETSEAEIHQSFQHLLRTLNQSSDELQLSMGNAMFVKEQLSLLDRFTEDAKRLYGSEAFATDFQDSAAAKKLINDYVKNGTRGKITDLIKDLDSQTMMVLVNYIFFKAKWEMPFDPQDTHQSRFYLSKKKWVMVPMMSLHHLTIPYFRDEELSCTVVELKYTGNASALFILPDQDKMEEVEAMLLPETLKRWRDSLEFREIGELYLPKFSISRDYNLNDILLQLGIEEAFTSKADLSGITGARNLAVSQVVHKAVLDVFEEGTEASAATAVKITLLSALVETRTIVRFNRPFLMIIVPTDTQNIFFMSKVTNPKQA”, the “percentage of EdU-negative” value in the data set on MCF7 (setting [7]) came out at 24.5 ± 0.068%; in the data set with MCF7 (setting [8]), 28 ± 3.5%; in the data set on hTERT-HMEC (setting [7]), 4.76 ± 0.8%; with hTERT-HMEC (setting [8]), 9.51 ± 0.15%.
On to “MERPLCSHLCSCLAMLALLSPLSLAQYDSWPHYPEYFQQPAPEYHQPQAPANVAKIQLRLAGQKRKHSEGRVEVYYDGQWGTVCDDDFSIHAAHVVCRELGYVEAKSWTASSSYGKGEGPIWLDNLHCTGNEATLAACTSNGWGVTDCKHTEDVGVVCSDKRIPGFKFDNSLINQIENLNIQVEDIRIRAILSTYRKRTPVMEGYVEVKEGKTWKQICDKHWTAKNSRVVCGMFGFPGERTYNTKVYKMFASRRKQRYWPFSMDCTGTEAHISSCKLGPQVSLDPMKNVTCENGLPAVVSCVPGQVFSPDGPSRFRKAYKPEQPLVRLRGGAYIGEGRVEVLKNGEWGTVCDDKWDLVSASVVCRELGFGSAKEAVTGSRLGQGIGPIHLNEIQCTGNEKSIIDCKFNAESQGCNHEEDAGVRCNTPAMGLQKKLRLNGGRNPYEGRVEVLVERNGSLVWGMVCGQNWGIVEAMVVCRQLGLGFASNAFQETWYWHGDVNSNKVVMSGVKCSGTELSLAHCRHDGEDVACPQGGVQYGAGVACSETAPDLVLNAEMVQQTTYLEDRPMFMLQCAMEENCLSASAAQTDPTTGYRRLLRFSSQIHNNGQSDFRPKNGRHAWIWHDCHRHYHSMEVFTHYDLLNLNGTKVAEGHKASFCLEDTECEGDIQKNYECANFGDQGITMGCWDMYRHDIDCQWVDITDVPPGDYLFQVVINPNFEVAESDYSNNIMKCRSRYDGHRIWMYNCHIGGSFSEETEKKFEHFSGLLNNQLSPQ [Q9Y4K0]”, for which the “percentage of EdU-negative” value in the data set on MCF7 (setting [9]) amounted to 25.4 ± 0.28%; in the data set on MCF7 (setting [10]), 27.7 ± 0.84%; in the data set with hTERT-HMEC (setting [9]) it was 4.4 ± 0.43%; in the data set on hTERT-HMEC (setting [10]), 9.13 ± 1.5%.
For the sequence “MERPSLRALLLGAAGLLLLLLPLSSSSSSDTCGPCEPASCPPLPPLGCLLGETRDACGCCPMCARGEGEPCGGGGAGRGYCAPGMECVKSRKRRKGKAGAAAGGPGVSGVCVCKSRYPVCGSDGTTYPSGCQLRAASQRAESRGEKAITQVSKGTCEQGPSIVTPPKDIWNVTGAQVYLSCEVIGIPTPVLIWNKVKRGHYGVQRTELLPGDRDNLAIQTRGGPEKHEVTGWVLVSPLSKEDAGEYECHASNSQGQASASAKITVVDALHEIPVKKGEGAEL”, the “percentage of EdU-negative” value with MCF7 (setting [11]) was determined as 25.4 ± 0.77%; in the data set on MCF7 (setting [12]), 26.5 ± 1.5%; in the data set with hTERT-HMEC (setting [11]) it was 4.88 ± 0.84%; in the data set on hTERT-HMEC (setting [12]), 5.65 ± 0.3%.
In the case of “MERRAWSLQCTAFVLFCAWCALNSAKAKRQFVNEWAAEIPGGPEAASAIAEELGYDLLGQIGSLENHYLFKHKNHPRRSRRSAFHITKRLSDDDRVIWAEQQYEKERSKRSALRDSALNLFNDPMWNQQWYLQDTRMTAALPKLDLHVIPVWQKGITGKGVVITVLDDGLEWNHTDIYANYDPEASYDFNDNDHDPFPRYDPTNENKHGTRCAGEIAMQANNHKCGVGVAYNSKVGGIRMLDGIVTDAIEASSIGFNPGHVDIYSASWGPNDDGKTVEGPGRLAQKAFEYGVKQGRQGKGSIFVWASGNGGRQGDNCDCDGYTDSIYTISISSASQQGLSPWYAEKCSSTLATSYSSGDYTDQRITSADLHNDCTETHTGTSASAPLAAGIFALALEANPNLTWRDMQHLVVWTSEYDPLANNPGWKKNGAGLMVNSRFGFGLLNAKALVDLADPRTWRSVPEKKECVVKDNDFEPRALKANGEVIIEIPTRACEGQENAIKSLEHVQFEATIEYSRRGDLHVTLTSAAGTSTVLLAERERDTSPNGFKNWDFMSVHTWGENPIGTWTLRITDMSGRIQNEGRIVNWKLILHGTSSQPEHMKQPRVYTSYNTVQNDRRGVEKMVDPGEEQPTQENPKENTLVSKSPSSSSVGGRRDELEEGAPSQAMLRLLQSAFSKNSPPKQSPKKSPSAKLNIPYENFYEALEKLNKPSQLKDSEDSLYNDYVDVFYNTKPYKHRDDRLLQALVDILNEEN”, the “percentage of EdU-negative” value in the data set with MCF7 (protein concentration 0.009 µM) was determined as 25.7 ± 4%; in the data set on MCF7 (protein concentration 0.09 µM) it was 27.832 ± 0.026%; in the data set with hTERT-HMEC (protein concentration 0.009 µM) it was 4.928 ± 0.013%; with hTERT-HMEC (protein concentration 0.09 µM), 7.51 ± 0.97%.
For “MERVQPLEENVGNAARPRFERNKLLLVASVIQGLGLLLCFTYICLHFSALQVSHRYPRIQSIKVQFTEYKKEKGFILTSQKEDEIMKVQNNSVIINCDGFYLISLKGYFSQEVNISLHYQKDEEPLFQLKKVRSVNSLMVASLTYKDKVYLNVTTDNTSLDDFHVNGGELILIHQNPGEFCVL”, the “percentage of EdU-negative” value in the data set on MCF7 (setting [13]) is 23.4 ± 0.97%; with MCF7 (setting [14]), 27.27 ± 0.14%; with hTERT-HMEC (setting [13]) it was 5.74 ± 1.2%; in the data set on hTERT-HMEC (setting [14]), 5.19 ± 1.2%.
Consider “MESKGASSCRLLFCLLISATVFRPGLGWYTVNSAYGDTIIIPCRLDVPQNLMFGKWKYEKPDGSPVFIAFRSSTKKSVQYDDVPEYKDRLNLSENYTLSISNARISDEKRFVCMLVTEDNVFEAPTIVKVFKQPSKPEIVSKALFLETEQLKKLGDCISEDSYPDGNITWYRNGKVLHPLEGAVVIIFKKEMDPVTQLYTMTSTLEYKTTKADIQMPFTCSVTYYGPSGQKTIHSEQAVFDIYYPTEQVTIQVLPPKNAIKEGDNITLKCLGNGNPPPEEFLFYLPGQPEGIRSSNTYTLTDVRRNATGDYKCSLIDKKSMIASTAITVHYLDLSLNPSGEVTRQIGDALPVSCTISASRNATVVWMKDNIRLRSSPSFSSLHYQDAGNYVCETALQEVEGLKKRESLTLIVEGKPQIKMTKKTDPSGLSKTIICHVEGFPKPAIQWTITGSGSVINQTEESPYINGRYYSKIIISPEENVTLTCTAENQLERTVNSLNVSAISIPEHDEADEISDENREKVNDQAKLIVGIVVGLLLAALVAGVVYWLYMKKSKTASKHVNKDLGNMEENKKLEENNHKTEA”, for which the “percentage of EdU-negative” value in the data set on MCF7 (setting [5]) turned out to be 26.8 ± 1.2%; in the data set with MCF7 (setting [6]), 25.13 ± 0.15%; in the data set with hTERT-HMEC (setting [5]), 4.83 ± 0.2%; in the data set on hTERT-HMEC (setting [6]), 5.08 ± 0.77%.
